According to article PMC3216068:

Target: SUMO1 (human) (UniProt P63165)
Test: SPR; preliminary BiaCore analyses, done by Affina Biotechnologies as a paid service

UniProt P63165, sequence (P63165 1-97): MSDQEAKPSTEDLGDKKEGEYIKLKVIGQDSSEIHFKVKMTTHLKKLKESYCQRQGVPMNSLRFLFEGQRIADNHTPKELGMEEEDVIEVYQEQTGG

Kd: 12.8 nM
Substance: Ulp1(3)^(C580S) as used in the BiaCore analyses (from UniProt Q02724 341-621) (domain or fragment)
